Measurements as given in patent US20180155450A1 (Sanofi, published 2018).
Positions count from the first letter of the chain named.

B1: CODV-Ig Batch ID 130 (IL4 × IL13 on LC; L1=1, L2=4, L3=2, L4=4) (bispecific antibody)
chain 1: not shown
chain 2: DIQMTQSPASLSVSVGDTITLTCHASQNIDVWLSWFQQKPGNIPKLLIYKASNLHTGVPSRFSGSGSGTGFTLTISSLQPEDIATYYCQQAHSYPFTFGGGTKLEIKGDIVLTQSPASLAVSLGQRATISCRASESVDSYGQSYMHWYQQKAGQPPKLLIYLASNLESGVPARFSGSGSRTDFTLTIDPVQAEDAATYYCQQNAEDSRTFGGGTKLEIKGGGGRTVAAPSVFIFPPSDEQLKSGTASVVCLLNNFYPREAKVQWKVDNALQSGNSQESVTEQDSKDSTYSLSSTLTLSKADYEKHKVYACEVTHQGLSSPVTKSFNRGEC
B2: CODV-Ig Batch ID 506 (IL4 × IL13 on HC; L1 GQPKAAP, L2 TVAAP, L3 S, L4 TK) (bispecific antibody)
heavy: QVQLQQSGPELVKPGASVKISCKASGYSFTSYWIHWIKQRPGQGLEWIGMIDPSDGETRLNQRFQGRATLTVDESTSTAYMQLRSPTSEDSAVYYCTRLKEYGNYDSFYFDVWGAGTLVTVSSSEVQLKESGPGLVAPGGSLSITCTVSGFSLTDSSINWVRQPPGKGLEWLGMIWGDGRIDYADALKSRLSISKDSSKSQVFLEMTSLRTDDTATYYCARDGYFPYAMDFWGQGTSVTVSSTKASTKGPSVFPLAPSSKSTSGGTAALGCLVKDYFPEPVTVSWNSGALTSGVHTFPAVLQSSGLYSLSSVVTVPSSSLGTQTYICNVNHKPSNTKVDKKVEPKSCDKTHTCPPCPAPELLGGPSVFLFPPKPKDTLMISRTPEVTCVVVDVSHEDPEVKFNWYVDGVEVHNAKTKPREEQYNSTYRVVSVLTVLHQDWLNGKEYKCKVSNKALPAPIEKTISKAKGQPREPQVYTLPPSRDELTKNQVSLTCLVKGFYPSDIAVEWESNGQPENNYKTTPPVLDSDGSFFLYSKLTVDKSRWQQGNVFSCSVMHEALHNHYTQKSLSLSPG
light: DIVLTQSPASLAVSLGQRATISCRASESVDSYGQSYMHWYQQKAGQPPKLLIYLASNLESGVPARFSGSGSRTDFTLTIDPVQAEDAATYYCQQNAEDSRTFGGGTKLEIKGQPKAAPDIQMTQSPASLSVSVGDTITLTCHASQNIDVWLSWFQQKPGNIPKLLIYKASNLHTGVPSRFSGSGSGTGFTLTISSLQPEDIATYYCQQAHSYPFTFGGGTKLEIKTVAAPRTVAAPSVFIFPPSDEQLKSGTASVVCLLNNFYPREAKVQWKVDNALQSGNSQESVTEQDSKDSTYSLSSTLTLSKADYEKHKVYACEVTHQGLSSPVTKSFNRGEC
B3: CODV-Ig Batch ID 505 (IL4 × IL13 on HC; L1 GQPKAAP, L2 TKGPS, L3 S, L4 RT) (bispecific antibody)
heavy: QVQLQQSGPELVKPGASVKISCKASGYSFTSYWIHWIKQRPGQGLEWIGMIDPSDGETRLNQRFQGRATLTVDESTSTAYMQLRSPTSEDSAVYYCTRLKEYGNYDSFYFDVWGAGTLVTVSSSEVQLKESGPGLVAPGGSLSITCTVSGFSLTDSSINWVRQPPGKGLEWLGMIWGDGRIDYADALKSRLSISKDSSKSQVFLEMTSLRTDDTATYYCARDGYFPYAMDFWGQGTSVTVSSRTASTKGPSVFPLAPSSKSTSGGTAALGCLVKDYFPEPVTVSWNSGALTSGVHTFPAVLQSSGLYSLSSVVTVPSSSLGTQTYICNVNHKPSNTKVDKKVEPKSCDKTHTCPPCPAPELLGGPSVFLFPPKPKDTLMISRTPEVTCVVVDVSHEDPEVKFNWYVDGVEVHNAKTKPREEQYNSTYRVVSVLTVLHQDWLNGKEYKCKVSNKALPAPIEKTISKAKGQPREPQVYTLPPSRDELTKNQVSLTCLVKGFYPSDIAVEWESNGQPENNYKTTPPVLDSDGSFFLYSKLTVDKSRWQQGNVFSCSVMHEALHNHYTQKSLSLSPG
light: B2 light with V227K, A228G, A229P, P230S
B4: CODV-Ig Batch ID 504 (IL4 × IL13 on HC; L1 RTVAAPS, L2 QPKAA, L3 S, L4 TK) (bispecific antibody)
heavy: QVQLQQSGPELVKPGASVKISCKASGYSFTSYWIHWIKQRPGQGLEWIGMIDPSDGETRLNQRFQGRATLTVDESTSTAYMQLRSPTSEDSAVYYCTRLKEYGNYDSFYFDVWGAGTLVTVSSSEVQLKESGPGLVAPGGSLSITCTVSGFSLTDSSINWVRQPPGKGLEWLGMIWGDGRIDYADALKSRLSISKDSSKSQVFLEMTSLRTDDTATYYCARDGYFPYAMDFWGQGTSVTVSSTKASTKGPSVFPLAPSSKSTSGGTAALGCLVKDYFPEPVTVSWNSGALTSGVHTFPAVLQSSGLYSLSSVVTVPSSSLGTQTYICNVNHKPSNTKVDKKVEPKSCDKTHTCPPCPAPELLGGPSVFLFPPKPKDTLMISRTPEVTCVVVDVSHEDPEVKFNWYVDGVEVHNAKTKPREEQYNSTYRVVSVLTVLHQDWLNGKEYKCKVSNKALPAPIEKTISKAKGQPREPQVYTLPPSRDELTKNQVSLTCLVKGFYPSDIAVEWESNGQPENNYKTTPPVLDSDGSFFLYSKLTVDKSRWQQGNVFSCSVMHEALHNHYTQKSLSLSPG
light: B2 light with G112R, Q113T, P114V, K115A, A117P, P118S, T226Q, V227P, A228K, P230A
B5: CODV-Ig Batch ID 507 (IL4 × IL13 on HC; L1 GQPKAAP, L2 QPKAA, L3 S, L4 RT) (bispecific antibody)
heavy: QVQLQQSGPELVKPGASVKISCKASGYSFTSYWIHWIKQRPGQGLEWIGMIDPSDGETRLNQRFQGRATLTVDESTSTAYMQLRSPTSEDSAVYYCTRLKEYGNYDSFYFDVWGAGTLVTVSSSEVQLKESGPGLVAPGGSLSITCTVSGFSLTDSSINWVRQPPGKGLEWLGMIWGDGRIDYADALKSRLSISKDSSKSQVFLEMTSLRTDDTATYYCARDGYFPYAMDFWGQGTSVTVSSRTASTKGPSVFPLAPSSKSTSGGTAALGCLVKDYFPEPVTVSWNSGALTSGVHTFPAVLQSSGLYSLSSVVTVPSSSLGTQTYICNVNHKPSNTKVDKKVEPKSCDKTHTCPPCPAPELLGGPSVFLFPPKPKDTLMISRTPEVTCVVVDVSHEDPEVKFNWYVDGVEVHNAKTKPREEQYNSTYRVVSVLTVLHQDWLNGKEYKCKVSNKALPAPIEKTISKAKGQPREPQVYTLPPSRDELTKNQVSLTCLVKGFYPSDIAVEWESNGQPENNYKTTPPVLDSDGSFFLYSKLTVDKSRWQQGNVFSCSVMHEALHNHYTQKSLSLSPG
light: B2 light with T226Q, V227P, A228K, P230A
B6: CODV-Ig Batch ID 502 (IL4 × IL13 on HC; L1 ASTKGPS, L2 TVAAP, L3 S, L4 QP) (bispecific antibody)
heavy: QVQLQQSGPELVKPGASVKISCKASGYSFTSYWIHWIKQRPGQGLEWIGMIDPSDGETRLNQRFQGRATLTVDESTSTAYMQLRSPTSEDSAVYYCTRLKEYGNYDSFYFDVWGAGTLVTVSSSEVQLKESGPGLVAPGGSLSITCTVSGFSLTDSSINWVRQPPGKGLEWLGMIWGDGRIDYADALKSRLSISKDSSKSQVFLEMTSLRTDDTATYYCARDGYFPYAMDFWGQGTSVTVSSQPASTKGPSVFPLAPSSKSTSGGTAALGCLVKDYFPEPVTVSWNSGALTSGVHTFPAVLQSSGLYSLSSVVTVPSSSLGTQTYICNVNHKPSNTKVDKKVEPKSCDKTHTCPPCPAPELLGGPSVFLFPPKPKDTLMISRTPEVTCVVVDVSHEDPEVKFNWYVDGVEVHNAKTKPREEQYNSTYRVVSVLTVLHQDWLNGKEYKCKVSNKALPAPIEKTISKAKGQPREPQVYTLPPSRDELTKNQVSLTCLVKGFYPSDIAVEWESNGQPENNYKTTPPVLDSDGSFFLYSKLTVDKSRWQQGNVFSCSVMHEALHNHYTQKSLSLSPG
light: B2 light with G112A, Q113S, P114T, A116G, A117P, P118S
B7: CODV-Ig Batch ID 503 (IL4 × IL13 on HC; L1 ASTKGPS, L2 TVAAP, L3 S, L4 SS) (bispecific antibody)
heavy: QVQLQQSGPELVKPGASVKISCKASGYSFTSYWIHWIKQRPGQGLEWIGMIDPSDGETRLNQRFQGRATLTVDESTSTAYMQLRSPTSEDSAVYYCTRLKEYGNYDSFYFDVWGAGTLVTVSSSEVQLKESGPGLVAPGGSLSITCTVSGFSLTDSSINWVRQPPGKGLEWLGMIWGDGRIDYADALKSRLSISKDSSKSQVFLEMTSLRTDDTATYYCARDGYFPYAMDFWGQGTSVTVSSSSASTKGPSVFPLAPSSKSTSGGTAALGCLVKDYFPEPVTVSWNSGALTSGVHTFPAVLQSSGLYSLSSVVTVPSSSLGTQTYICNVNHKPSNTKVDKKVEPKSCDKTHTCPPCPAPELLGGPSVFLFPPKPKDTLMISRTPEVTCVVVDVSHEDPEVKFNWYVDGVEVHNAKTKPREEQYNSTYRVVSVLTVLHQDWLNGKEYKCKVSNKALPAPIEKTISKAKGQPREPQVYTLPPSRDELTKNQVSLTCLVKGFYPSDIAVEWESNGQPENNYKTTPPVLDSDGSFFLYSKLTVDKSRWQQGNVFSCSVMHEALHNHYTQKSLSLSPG
light: B2 light with G112A, Q113S, P114T, A116G, A117P, P118S
B8: CODV-Ig Batch ID 501 (IL4 × IL13 on HC; L1 ASTKGPS, L2 TKGPS, L3 S, L4 RT) (bispecific antibody)
heavy: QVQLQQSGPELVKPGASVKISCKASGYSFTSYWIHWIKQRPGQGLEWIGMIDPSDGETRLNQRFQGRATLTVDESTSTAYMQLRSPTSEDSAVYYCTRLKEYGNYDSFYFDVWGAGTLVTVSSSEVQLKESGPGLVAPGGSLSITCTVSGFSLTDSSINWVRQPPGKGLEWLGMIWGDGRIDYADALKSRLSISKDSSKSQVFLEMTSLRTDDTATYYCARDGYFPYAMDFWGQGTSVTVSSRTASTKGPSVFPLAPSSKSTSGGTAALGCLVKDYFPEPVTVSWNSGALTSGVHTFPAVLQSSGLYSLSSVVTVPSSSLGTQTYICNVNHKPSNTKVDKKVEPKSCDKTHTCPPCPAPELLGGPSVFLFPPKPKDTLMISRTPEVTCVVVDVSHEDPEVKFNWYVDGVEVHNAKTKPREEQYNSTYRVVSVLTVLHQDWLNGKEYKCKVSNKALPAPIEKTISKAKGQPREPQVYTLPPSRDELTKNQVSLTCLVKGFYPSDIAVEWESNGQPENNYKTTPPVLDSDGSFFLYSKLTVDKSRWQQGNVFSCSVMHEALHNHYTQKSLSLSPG
light: B2 light with G112A, Q113S, P114T, A116G, A117P, P118S, V227K, A228G, A229P, P230S
B9: parental anti-IL4 mAb (antibody, V domains shown)
VH: QVQLQQSGPELVKPGASVKISCKASGYSFTSYWIHWIKQRPGQGLEWIGMIDPSDGETRLNQRFQGRATLTVDESTSTAYMQLRSPTSEDSAVYYCTRLKEYGNYDSFYFDVWGAGTLVTVSS
VL: DIQMTQSPASLSVSVGDTITLTCHASQNIDVWLSWFQQKPGNIPKLLIYKASNLHTGVPSRFSGSGSGTGFTLTISSLQPEDIATYYCQQAHSYPFTFGGGTKLEIKR
notes: also called parental humanized anti-IL4; 8D4

Assays:
recombinant human IL13 = molecular target: T1, recombinant human IL13 (human, UniProt P35225 35-146, limits assumed); experiment: SPR, Biacore 3000; CODV-Ig captured by anti-human Fc, antigen as analyte
T1 construct: also called Antigen2
T1 sequence (P35225 35-146 limits assumed): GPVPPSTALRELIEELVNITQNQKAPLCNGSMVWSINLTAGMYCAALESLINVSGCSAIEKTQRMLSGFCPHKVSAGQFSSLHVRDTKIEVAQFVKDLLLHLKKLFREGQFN
Description: (§1) Kinetic binding analysis by Biacore was performed as follows. Surface plasmon resonance technology on a Biacore 3000 (GE Healthcare) was used for detailed kinetic characterization of purified antibodies. […] Chip surfaces were regenerated with 10 mM glycine pH 2.5. Kinetic parameters were analyzed and calculated in the BIAevaluation program package v4.1 using a flow cell without captured antibody as a reference.

recombinant human IL4 [1] = molecular target: T2, recombinant human IL4 (human, UniProt P05112 25-153); experiment: as above
T2 construct: also called Antigen1
T2 sequence (looked up): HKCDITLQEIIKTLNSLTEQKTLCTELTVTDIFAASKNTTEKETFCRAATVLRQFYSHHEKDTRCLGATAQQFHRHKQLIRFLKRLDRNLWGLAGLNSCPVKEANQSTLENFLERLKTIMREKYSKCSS
Description: as §1

recombinant human IL4 [2] = molecular target: T3, recombinant human IL4 (human, UniProt P05112 25-153); experiment: SPR (Biacore 3000), antibody captured, antigen as analyte
T3 construct: bought
T3 sequence (looked up): T2 sequence (looked up)
Description: as §1

recombinant human IL4 [3] = molecular target: T3, recombinant human IL4; experiment: cell-based or functional assay
recombinant human IL4 [4] = molecular target: T2, recombinant human IL4; experiment: SPR, BIACORE 3000; antibody captured by anti-human Fc, antigen 0-25 nM as analyte
Description: Kinetic characterization of purified antibodies was performed using surface plasmon resonance technology on a BIACORE 3000 (GE Healthcare). […] Chip surfaces were regenerated with 10 mM glycine, pH 2.5. Kinetic parameters were analyzed and calculated in the BIAevaluation program package v4.1 using a flow cell without captured antibody as reference.

| Kd (recombinant human IL4 [2]) | IC50 Cellular Assay IL4 [nM] (HEK-Blue IL-4/IL-13 reporter cells, SEAP) (recombinant human IL4 [3]) | further results | Binder |
| --- | --- | --- | --- |
| – | – | Kd (recombinant human IL13): 57 pM; Kd (recombinant human IL4 [1]): 4 pM | B1 |
| 7 pM | 0.045 nM | – | B2 |
| 6 pM | 0.033 nM | – | B3 |
| 8 pM | 0.042 nM | – | B4 |
| 1 pM | 0.04 nM | – | B5 |
| 3 pM | 0.049 nM | – | B6 |
| 3 pM | 0.047 nM | – | B7 |
| 1 pM | 0.034 nM | – | B8 |
| – | – | Kd (recombinant human IL4 [4]): 7.83 pM; koff (recombinant human IL4 [4]): 0.000195 s⁻¹; kon (recombinant human IL4 [4]): 2.49e+07 M⁻¹ s⁻¹ | B9 |
